Experimental data taken from publication PMC6232179 (2018).
One block for each binder: values may come before it.

Tests used:
[1] = molecular target: T1, His-tagged ER luminal domain of IRE1α (IRE1-NLD-His6-KDEL) (red fluorescent tag, covalently labelled (only in the MST of Figure 4C)); test: SPR
T1 chain: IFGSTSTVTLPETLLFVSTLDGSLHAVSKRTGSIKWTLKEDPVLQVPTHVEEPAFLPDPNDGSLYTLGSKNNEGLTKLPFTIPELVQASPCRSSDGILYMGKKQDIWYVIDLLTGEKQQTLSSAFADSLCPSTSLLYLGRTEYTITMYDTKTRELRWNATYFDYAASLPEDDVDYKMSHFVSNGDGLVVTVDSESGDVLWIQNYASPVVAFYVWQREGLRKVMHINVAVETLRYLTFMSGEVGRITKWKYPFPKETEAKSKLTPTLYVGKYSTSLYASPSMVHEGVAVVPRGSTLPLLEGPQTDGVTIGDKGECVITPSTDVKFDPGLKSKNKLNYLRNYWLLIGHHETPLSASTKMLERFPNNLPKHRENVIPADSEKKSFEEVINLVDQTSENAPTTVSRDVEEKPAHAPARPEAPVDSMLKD

[2] = molecular target: T1, His-tagged ER luminal domain of IRE1α …; test: MST; COX-2 labelled
[3] = molecular target: T1, His-tagged ER luminal domain of IRE1α …; test: MST; IRE1-NLD labelled

Kd [1]: 3530 nM
B1: PDIA6 (protein)
chain: LYSSSDDVIELTPSNFNREVIQSDSLWLVEFYAPWCGHCQRLTPEWKKAATALKDVVKVGAVDADKHHSLGGQYGVQGFPTIKIFGSNKNRPEDYQGGRTGEAIVDAALSALRQLVKDRLGGRSGGYSSGKQGRSDSSSKKDVIELTDDSFDKNVLDSEDVWMVEFYAPWCGHCKNLEPEWAAAASEVKEQTKGKVKLAAVDATVNQVLASRYGIRGFPTIKIFQKGESPVDYDGGRTRSDIVSRALDLFSDNAPPPELLEIINEDIAKRTCEEHQLCVVAVLPHILDTGAAGRNSYLEVLLKLADKYKKKMWGWLWTEAGAQSELETALGIGGFGYPAMAAINARKMKFALLKGSFSEQGINEFLRELSFGRGSTAPVGGGAFPTIVEREPWDGRDGELPVEDDIDLSDVELDDLGKDEL

Kd [2]: 138 nM | Kd [3]: 155 nM
B2: COX-2 (prostaglandin endoperoxide synthase 2, PTGS2), purified His-tagged protein (enzyme)
chain: ANPCCSHPCQNRGVCMSVGFDQYKCDCTRTGFYGENCSTPEFLTRIKLFLKPTPNTVHYILTHFKGFWNVVNNIPFLRNAIMSYVLTSRSHLIDSPPTYNADYGYKSWEAFSNLSYYTRALPPVPDDCPTPLGVKGKKQLPDSNEIVEKLLLRRKFIPDPQGSNMMFAFFAQHFTHQFFKTDHKRGPAFTNGLGHGVDLNHIYGETLARQRKLRLFKDGKMKYQIIDGEMYPPTVKDTQAEMIYPPQVPEHLRFAVGQEVFGLVPGLMMYATIWLREHNRVCDVLKQEHPEWGDEQLFQTSRLILIGETIKIVIEDYVQHLSGYHFKLKFDPELLFNKQFQYQNRIAAEFNTLYHWHPLLPDTFQIHDQKYNYQQFIYNNSILLEHGITQFVESFTRQIAGRVAGGRNVPPAVQKVSQASIDQSRQMKYQSFNEYRKRFMLKPYESFEELTGEKEMSAELEALYGDIDAVELYPALLVEKPRPDAIFGETMVEVGAPFSLKGLMGNVICSPAYWKPSTFGGEVGFQIINTASIQSLICNNVKGCPFTSFSVPDPELIKTVTINASSSRSGLDDINPTVLLKERSTEL
modifications: red fluorescent tag, covalently labelled (only in the MST of Figure 4B)

Kd [1]: 1660 nM
B3: BiP (protein)
chain: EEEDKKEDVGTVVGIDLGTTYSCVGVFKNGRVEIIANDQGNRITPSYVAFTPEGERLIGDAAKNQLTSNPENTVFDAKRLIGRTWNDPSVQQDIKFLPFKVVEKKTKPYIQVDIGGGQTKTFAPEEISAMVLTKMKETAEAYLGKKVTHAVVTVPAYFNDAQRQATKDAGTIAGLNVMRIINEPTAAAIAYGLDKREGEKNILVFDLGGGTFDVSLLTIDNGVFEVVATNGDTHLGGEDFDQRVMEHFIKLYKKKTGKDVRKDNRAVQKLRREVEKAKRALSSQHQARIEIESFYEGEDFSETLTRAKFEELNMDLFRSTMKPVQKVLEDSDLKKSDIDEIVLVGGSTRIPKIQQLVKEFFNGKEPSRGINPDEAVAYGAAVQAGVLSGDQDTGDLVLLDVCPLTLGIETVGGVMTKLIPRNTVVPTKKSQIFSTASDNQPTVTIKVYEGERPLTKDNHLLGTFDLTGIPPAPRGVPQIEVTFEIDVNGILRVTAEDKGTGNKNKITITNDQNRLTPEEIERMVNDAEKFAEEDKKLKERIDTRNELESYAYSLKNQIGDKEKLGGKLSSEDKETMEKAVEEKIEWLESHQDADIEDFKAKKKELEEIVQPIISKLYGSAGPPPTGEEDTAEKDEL
